Residue numbers refer to the chain shown, from its start. Each block holds one binder with its values, some of them ahead of it.
What was measured:
[1] = target: T1, human FcγRIIb extracellular domain, His-tagged (human, UniProt P31994 43-217); assay: binding amount of this antibody divided by that of 04H1637-G1m/04L1610-lam1; SPR pH 7.4
T1 construct: extracellular domain; also called hFcγR IIb
T1 sequence (looked up): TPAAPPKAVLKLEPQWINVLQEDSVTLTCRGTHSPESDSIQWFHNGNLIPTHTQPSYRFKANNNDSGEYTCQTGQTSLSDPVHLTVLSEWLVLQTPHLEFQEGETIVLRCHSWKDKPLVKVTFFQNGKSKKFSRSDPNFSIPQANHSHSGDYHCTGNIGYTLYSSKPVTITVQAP
Experimental: (§1) The interaction between the generated antibodies and human FcγRs was analyzed by the following method using Biacore T200. 50 mM Na-Phosphate, 150 mM NaCl, 0.05% Tween20 (pH 7.4) was used as the running buffer, and the assay was performed at 25° C. For the sensor chips, Series S SA (GE Healthcare) chips onto which CaptureSelect Human Fab-lambda Kinetics Biotin Conjugate (Thermo Fisher Scientific) was immobilized were used. The antibodies of interest were captured onto these chips and each FcγR diluted in the running buffer was allowed to interact with them. Chips were regenerated with 10 mM Glycine-HCl (pH 1.5) and 25 mM NaOH, and assay was performed by repeatedly capturing antibodies. The dissociation constants KD (mol/L) for FcγRs of each antibody were calculated using Biacore T200 Evaluation Software 2.0, using the 1:1 Langmuir binding model for FcγRIa and FcγRIIIa and the steady state affinity model for FcγRIIa. For FcγRIIb, the binding amount of FcγRIIb per unit amount of antibody was calculated by correcting the binding amount of FcγRIIb obtained from the sensorgram obtained by the measurement with the amount of antibody captured onto the chip surface.
(§2) “Relative value to KD between G1m and hFcRn” and “Relative value to KD between G1m and hFcγRs” are values obtained by dividing the KD value of 04H1637-G1m/04L1610-lam1 for hFcRn and for each FcγR by the KD value of each variant, respectively. “Relative binding amount” indicates the value obtained by dividing the binding amount of each variant to FcγRIIb by the binding amount of 04H1637-G1m/04L1610-lam1. […] It was shown that all of the generated heterodimerized antibodies had enhanced binding to FcγRIIa and FcγRIIIa as compared with 04H1637-G1m/04L1610-lam1 which has the constant region of native human IgG1.

[2] = target: T2, human FcγRIa extracellular domain, His-tagged (human, UniProt P12314 16-292); assay: KD of 04H1637-G1m/04L1610-lam1 divided by KD of this antibody; SPR pH 7.4
T2 construct: also called hFcγR Ia
T2 sequence (P12314 16-292): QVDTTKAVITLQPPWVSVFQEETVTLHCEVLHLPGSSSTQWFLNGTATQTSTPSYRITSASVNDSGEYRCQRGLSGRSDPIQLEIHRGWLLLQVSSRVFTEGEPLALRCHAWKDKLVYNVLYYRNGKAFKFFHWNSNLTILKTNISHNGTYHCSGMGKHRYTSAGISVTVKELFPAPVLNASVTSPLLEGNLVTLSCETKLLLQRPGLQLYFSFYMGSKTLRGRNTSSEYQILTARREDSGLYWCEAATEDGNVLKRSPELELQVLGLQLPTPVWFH
Experimental: as §1, §2

[3] = target: T3, human FcγRIIIa, allotype F158, extracellular domain, His-tagged (human, UniProt P08637 17-208); assay: as above
T3 construct: extracellular domain; also called hFcγR IIIa F
T3 sequence (P08637 17-208): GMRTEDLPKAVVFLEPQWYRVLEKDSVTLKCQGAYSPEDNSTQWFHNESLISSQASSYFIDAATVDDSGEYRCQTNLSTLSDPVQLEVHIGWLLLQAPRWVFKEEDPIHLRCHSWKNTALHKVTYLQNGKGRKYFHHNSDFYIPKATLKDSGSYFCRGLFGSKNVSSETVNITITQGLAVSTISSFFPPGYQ
Experimental: as §1, §2

[4] = target: T4, human FcγRIIIa, allotype V158, extracellular domain, His-tagged (human, UniProt P08637 17-208); assay: as above
T4 construct: extracellular domain; also called hFcγR IIIa V
T4 sequence (P08637 17-208 F176V): as the sequence (P08637 17-208) above, with F160V counted along it
Experimental: as §1, §2

[5] = target: T5, human FcγRIIa, type R, extracellular domain, His-tagged (human, UniProt P12318 34-217); assay: as above
T5 construct: extracellular domain; also called hFcγR IIa R
T5 sequence (looked up): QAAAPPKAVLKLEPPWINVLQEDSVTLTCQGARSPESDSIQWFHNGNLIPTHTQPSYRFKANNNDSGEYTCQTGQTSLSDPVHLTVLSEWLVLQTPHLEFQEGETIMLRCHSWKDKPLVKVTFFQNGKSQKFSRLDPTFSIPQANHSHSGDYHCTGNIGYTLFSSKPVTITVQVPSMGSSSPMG
Experimental: as §1, §2

[6] = target: T6, human FcγRIIa, type H, extracellular domain, His-tagged (human, UniProt P12318 34-217); assay: as above
T6 construct: extracellular domain; also called hFcγR IIa H
T6 sequence (looked up): T5 sequence (looked up) with R134H
Experimental: as §1, §2

[7] = target: T1, human FcγRIIb extracellular domain, …; assay: SPR Biacore T200, 25C, pH 7.4; FcγRIIb at 1000 nM, corrected by captured antibody
Experimental: as §1

[8] = target: T7, human FcRn (human, UniProt P55899 24-290; P61769 21-119); assay: KD of 04H1637-G1m/04L1610-lam1 divided by KD of this antibody; SPR pH 6.0
T7 construct: Prepared by the method of WO 2010/107110; also called hFcRn
Experimental: The interaction between the generated antibodies and human FcRn was analyzed by the following method using Biacore T200. 50 mM Na-Phosphate, 150 mM NaCl, 0.05% Tween20 (pH 6.0) was used as the running buffer, and the assay was performed at 25° C. For the sensor chip, Series S SA (GE Healthcare) chips onto which CaptureSelect Human Fab-lambda Kinetics Biotin Conjugate (Thermo Fisher Scientific) was immobilized were used. The antibodies of interest were captured onto these chips and FcRn diluted in the running buffer was allowed to interact with them. Chips were regenerated with 10 mM Glycine-HCl (pH 1.5) and 25 mM NaOH, and assay was performed by repeatedly capturing antibodies. The dissociation constant for FcRn of each antibody was calculated using the steady state model, using Biacore T200 Evaluation Software 2.0.
“Relative value to KD between G1m and hFcRn” and “Relative value to KD between G1m and hFcγRs” are values obtained by dividing the KD value of 04H1637-G1m/04L1610-lam1 for hFcRn and for each FcγR by the KD value of each variant, respectively. “Relative binding amount” indicates the value obtained by dividing the binding amount of each variant to FcγRIIb by the binding amount of 04H1637-G1m/04L1610-lam1. […] It was shown that all of the generated heterodimerized antibodies had enhanced binding to FcγRIIa and FcγRIIIa as compared with 04H1637-G1m/04L1610-lam1 which has the constant region of native human IgG1. Furthermore, 04H1637-Kn462/04L1610-lam1//04H1637-H1441/04L1610-lam1, 04H1637-Kn462/04L1610-lam1//04H1637-H1445/04L1610-lam1, and 04H1637-Kn461/04L1610-lam1//04H1637-H1443/04L1610-lam1 were all shown to have enhanced binding to FcγRIIa compared to 04H1637-Kn125/04L1610-lam1//04H1637-H1076/04L1610-lam 1 which has the Fc region variant reported in WO 2013/002362.

Relative binding amount [1]: 1 ratio
Relative value to KD between G1m and hFcγRs [2]: 1 ratio
Relative value to KD between G1m and hFcγRs [3]: 1 ratio
Relative value to KD between G1m and hFcγRs [4]: 1 ratio
Relative value to KD between G1m and hFcγRs [5]: 1 ratio
Relative value to KD between G1m and hFcγRs [6]: 1 ratio
Binding amount [7]: 0.008 RU per RU of captured antibody
Relative value to KD between G1m and hFcRn [8]: 1 ratio
B1: 04H1637-G1m/04L1610-lam1 (antibody, human IgG1, lambda)
heavy: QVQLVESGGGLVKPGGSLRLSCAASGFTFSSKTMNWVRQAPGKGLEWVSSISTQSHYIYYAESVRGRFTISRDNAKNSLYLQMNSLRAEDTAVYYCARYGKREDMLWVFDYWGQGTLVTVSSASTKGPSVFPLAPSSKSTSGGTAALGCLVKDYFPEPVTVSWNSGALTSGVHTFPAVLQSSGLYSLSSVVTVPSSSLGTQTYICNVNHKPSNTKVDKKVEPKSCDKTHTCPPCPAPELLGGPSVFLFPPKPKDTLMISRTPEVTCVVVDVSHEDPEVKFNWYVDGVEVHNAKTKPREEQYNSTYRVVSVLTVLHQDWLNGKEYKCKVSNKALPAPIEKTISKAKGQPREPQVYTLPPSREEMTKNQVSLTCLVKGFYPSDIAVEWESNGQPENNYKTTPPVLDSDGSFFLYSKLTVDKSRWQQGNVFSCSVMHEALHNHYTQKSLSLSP
light: QSALTQPPSASGSPGQSVTISCEGPSTGVGDYNWVHWYQQHPGKAPKLMIYFTSKKPSGVPDRFSGSKSGNTASLTVSGLQAEDEADYYCQTYAAPLGPMFGGGTKLTVLGQPKAAPSVTLFPPSSEELQANKATLVCLISDFYPGAVTVAWKADSSPVKAGVETTTPSKQSNNKYAASSYLSLTPEQWKSHRSYSCQVTHEGSTVEKTVAPTECS

Relative binding amount [1]: 3.7 ratio
Relative value to KD between G1m and hFcγRs [2]: 0.6 ratio
Relative value to KD between G1m and hFcγRs [3]: 382 ratio
Relative value to KD between G1m and hFcγRs [4]: 131 ratio
Relative value to KD between G1m and hFcγRs [5]: 18.7 ratio
Relative value to KD between G1m and hFcγRs [6]: 37.5 ratio
Binding amount [7]: 0.03 RU per RU of captured antibody
B3: 04H1637-Kn462/04L1610-lam1//04H1637-H1445/04L1610-lam1 (antibody, human IgG1, lambda)
heavy 1: QVQLVESGGGLVKPGGSLRLSCAASGFTFSSKTMNWVRQAPGKGLEWVSSISTQSHYIYYAESVRGRFTISRDNAKNSLYLQMNSLRAEDTAVYYCARYGKREDMLWVFDYWGQGTLVTVSSASTKGPSVFPLAPSSKSTSGGTAALGCLVKDYFPEPVTVSWNSGALTSGVHTFPAVLQSSGLYSLSSVVTVPSSSLGTQTYICNVNHKPSNTKVDKKVEPKSCDKTHTCPPCPAPEFQWGPMVFLFPPKPKDVLMISRTPEVTCVVVDVSDEEPEVKFNWYVDGVEVHNAKTKPREEQYNATYRVVSVLPVLHQDWLNGKEYKCKVSNDALPAPIEKTISKAKGQPREPQVCTLPPSRDELTKNQVSLWCLVKGFYPSDIAVEWESNGQPENNYKTTPPVLDSDGSFFLYSKLTVDKSRWQQGNVFSCSVMHEALHNHYTQKSLSLSP
heavy 2: QVQLVESGGGLVKPGGSLRLSCAASGFTFSSKTMNWVRQAPGKGLEWVSSISTQSHYIYYAESVRGRFTISRDNAKNSLYLQMNSLRAEDTAVYYCARYGKREDMLWVFDYWGQGTLVTVSSASTKGPSVFPLAPSSKSTSGGTAALGCLVKDYFPEPVTVSWNSGALTSGVHTFPAVLQSSGLYSLSSVVTVPSSSLGTQTYICNVNHKPSNTKVDKKVEPKSCDKTHTCPPCPAPELLAGPSVFLFPPKPKDVLMISRTPEVTCVVVDVSHEEPEVKFNWYVDGVEVHNAKTKPREEQYNATYRVVSVLPVLHQDWLNGKEYKCKVSNDALPKPDEETISKAKGQPREPQVYTLPPSRCELTKNQVSLSCAVKGFYPSDIAVEWESNGQPENNYKTTPPVLDSDGSFFLVSKLTVDKSRWQQGNVFSCSVMHEALHNHYTQKSLSLSP
light: B1 light
notes: Heterodimerized IgG1 Fc variant; also called 04H1637-Kn462/04L1610-lam1//04H1637-Hl445/04L1610-lam1

Relative binding amount [1]: 0.9 ratio
Relative value to KD between G1m and hFcγRs [2]: 1.2 ratio
Relative value to KD between G1m and hFcγRs [3]: 406 ratio
Relative value to KD between G1m and hFcγRs [4]: 126 ratio
Relative value to KD between G1m and hFcγRs [5]: 1.6 ratio
Relative value to KD between G1m and hFcγRs [6]: 3.6 ratio
Binding amount [7]: 0.007 RU per RU of captured antibody
B4: 04H1637-Kn125/04L1610-lam1//04H1637-H1076/04L1610-lam1 (antibody, human IgG1, lambda)
heavy 1: B3 heavy 1 with F239Y, V255T, P312T, D331K
heavy 2: B3 heavy 2 with A241G, V255T, A303S, P312T, K335M, D337I
light: B1 light
notes: Heterodimerized IgG1 with the Fc variant of WO 2013/002362; also called 04H1637-Kn125/04L1610-lam1//04H1637-Hl076/04L1610-lam1

Further lines, the binder ahead of its results:

B2: 04H1637-Kn462/04L1610-lam1//04H1637-H1441/04L1610-lam1 (antibody, human IgG1, lambda)
heavy 1: B3 heavy 1
heavy 2: B3 heavy 2 with K335A, D337I
light: B1 light
notes: Heterodimerized IgG1 Fc variant; also called 04H1637-Kn462/04L1610-lam1//04H1637-Hl441/04L1610-lam1
Relative binding amount [1]: 1.6 ratio
Relative value to KD between G1m and hFcγRs [2]: 0.3 ratio
Relative value to KD between G1m and hFcγRs [3]: 79.5 ratio
Relative value to KD between G1m and hFcγRs [4]: 45.8 ratio
Relative value to KD between G1m and hFcγRs [5]: 9.2 ratio
Relative value to KD between G1m and hFcγRs [6]: 20.9 ratio
Binding amount [7]: 0.013 RU per RU of captured antibody

B5: 04H1637-Kn461/04L1610-lam1//04H1637-H1443/04L1610-lam1 (antibody, human IgG1, lambda)
heavy 1: B3 heavy 1 with I337E
heavy 2: B3 heavy 2 with K335A, D337E
light: B1 light
notes: Heterodimerized IgG1 Fc variant; also called 04H1637-Kn461/04L1610-lam1//04H1637-Hl443/04L1610-lam1
Relative binding amount [1]: 3.1 ratio
Relative value to KD between G1m and hFcγRs [2]: 1.2 ratio
Relative value to KD between G1m and hFcγRs [3]: 616 ratio
Relative value to KD between G1m and hFcγRs [4]: 226 ratio
Relative value to KD between G1m and hFcγRs [5]: 10.7 ratio
Relative value to KD between G1m and hFcγRs [6]: 11.1 ratio
Binding amount [7]: 0.025 RU per RU of captured antibody

From US20260092115A1 (Chugai, published 2026)
